Tests used:
hsRosR [1] = molecular target: T1, hsRosR (Halobacterium salinarum (Halobacterium …, UniProt Q9HSF4 1-116)); assay: X-ray crystallography
T1 sequence: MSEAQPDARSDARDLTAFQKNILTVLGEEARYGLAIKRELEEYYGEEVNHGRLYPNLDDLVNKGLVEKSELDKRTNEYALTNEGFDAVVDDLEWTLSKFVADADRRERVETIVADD

hsRosR [2] = molecular target: T1, hsRosR; assay: fluorescence anisotropy
hsRosR [3] = molecular target: T1, hsRosR; assay: fluorescence anisotropy; remark: listed apart in the source
hsRosR [4] = molecular target: T1, hsRosR; assay: ITC
hsRosR [5] = molecular target: T1, hsRosR; assay: ITC; remark: listed apart in the source
hsRosR [6] = molecular target: T1, hsRosR; assay: fluorescence anisotropy; remark: listed apart in the source
hsRosR [7] = molecular target: T1, hsRosR; assay: fluorescence anisotropy; remark: listed apart in the source
hsRosR [8] = molecular target: T1, hsRosR; assay: fluorescence anisotropy; remark: listed apart in the source
hsRosR [9] = molecular target: T1, hsRosR; assay: fluorescence anisotropy; remark: listed apart in the source
hsRosR [10] = molecular target: T1, hsRosR; assay: fluorescence anisotropy; remark: listed apart in the source
hsRosR [11] = molecular target: T1, hsRosR; assay: X-ray crystallography; remark: listed apart in the source
hsRosR [12] = molecular target: T1, hsRosR; assay: X-ray crystallography; remark: listed apart in the source

B1: S5 (28 bp) (dsDNA)
DNA 1: GCGAAGTGTCATCCCTCTTACATGACTT
DNA 2: AAGTCATGTAAGAGGGATGACACTTCGC
B1: binds (hsRosR [1]).

B2: GS5 (dsDNA)
DNA 1: AGCGAGGACACTGCTGGCGGTGTCGCCGTC
DNA 2: GACGGCGACACCGCCAGCAGTGTCCTCGCT
B2: no binding (hsRosR [2]).

B3: GS2 (first) (dsDNA)
DNA 1: ATCGGGACAATCGCGTCTCTGTCGATCG
DNA 2: CGATCGACAGAGACGCGATTGTCCCGAT
B3: no binding (hsRosR [2]).

B4: S5 (35 bp) (dsDNA)
DNA 1: GCGAAGTGTCATCCCTCTTACATGACTTGTCTTGG
DNA 2: CCAAGACAAGTCATGTAAGAGGGATGACACTTCGC
For B4, the Kd (hsRosR [3]) was 99.5 ± 10.6 nM.

B5: S3 (dsDNA)
DNA 1: GCACATGTAAGTCTATTGACATGTTCTTTCCCTCG
DNA 2: CGAGGGAAAGAACATGTCAATAGACTTACATGTGC
B5 showed a Kd (hsRosR [3]) of 68 ± 11.3 nM.

B6: S1 (25 bp) (dsDNA)
DNA 1: GTGTAAATTGTCTGACATGTTCTTA
DNA 2: TAAGAACATGTCAGACAATTTACAC
In the case of B6, the Kd (hsRosR [4]) is reported as 259 ± 9.75 nM, the Kd (hsRosR [5]) is reported as 91 ± 3.25 nM and the Kd (hsRosR [6]) is reported as 169 ± 30.2 nM. For the same binder, the Kd (hsRosR [2]) was 37.2 ± 2.36 nM, the Kd (hsRosR [7]) was 25.9 ± 2.02 nM and the Kd (hsRosR [8]) was 78.3 ± 8.34 nM. For the same binder, the Kd (hsRosR [9]) was 80.2 ± 10.2 nM and the Kd (hsRosR [10]) was 24 ± 3.37 nM.

B7: S1 (35 bp) (dsDNA)
DNA 1: GCGAGGTGTAAATTGTCTGACATGTTCTTATTGGG
DNA 2: CCCAATAAGAACATGTCAGACAATTTACACCTCGC
B7 showed a Kd (hsRosR [2]) of 49.3 ± 6.18 nM.

B8: S4 (28 bp) (dsDNA)
DNA 1: CCGAAGTGTAAACGCGTTGACATGTGGT
DNA 2: ACCACATGTCAACGCGTTTACACTTCGG
B8: binds (hsRosR [11]).

B9: S2 (dsDNA)
DNA 1: GCGCTCATGTCAACCTTCTTACACTTCCTCTCCCG
DNA 2: CGGGAGAGGAAGTGTAAGAAGGTTGACATGAGCGC
Binder B9 has a Kd (hsRosR [3]) of 60.1 ± 18.8 nM.

B10: GS1 (dsDNA)
DNA 1: TAATAGACAGGGAGATCGATGTCTGCTA
DNA 2: TAGCAGACATCGATCTCCCTGTCTATTA
B10: no binding (hsRosR [2]).

B11: S4 (35 bp) (dsDNA)
DNA 1: GCCCGAAGTGTAAACGCGTTGACATGTGGTGCTGG
DNA 2: CCAGCACCACATGTCAACGCGTTTACACTTCGGGC
Binder B11 has a Kd (hsRosR [3]) of 91.6 ± 13.2 nM.

B12: GS2 (second) (dsDNA)
DNA 1: TTGAATTTGTGGGGGCAGGGACAGCCCTGA
DNA 2: TCAGGGCTGTCCCTGCCCCCACAAATTCAA
B12: no binding (hsRosR [2]).

B13: SG (28 bp) (dsDNA)
DNA 1: GCGACGTGTATTTCCCCTGACACTAGCG
DNA 2: CGCTAGTGTCAGGGGAAATACACGTCGC
B13: binds (hsRosR [12]).

B14: S1 (28 bp) (dsDNA)
DNA 1: GCGAGGTGTAAATTGTCTGACATGTTCT
DNA 2: AGAACATGTCAGACAATTTACACCTCGC
For B14, the Kd (hsRosR [2]) was 53.5 ± 6.54 nM.
